In US20220056119A1 (Regeneron, published 2022):

T1: Activin A (human, UniProt P08476 311-426)
T1 sequence: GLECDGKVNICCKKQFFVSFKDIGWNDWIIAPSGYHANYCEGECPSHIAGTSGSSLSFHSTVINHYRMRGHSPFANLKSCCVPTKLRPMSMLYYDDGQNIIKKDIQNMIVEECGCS

T2: Activin B (human, UniProt P09529 293-407)
T2 chain: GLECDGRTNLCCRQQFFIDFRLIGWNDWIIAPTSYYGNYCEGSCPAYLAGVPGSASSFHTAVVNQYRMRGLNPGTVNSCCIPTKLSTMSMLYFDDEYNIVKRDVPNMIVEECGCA

T3: Activin AB (human, UniProt P08476 311-426; P09529 293-407)
T3 chain 1: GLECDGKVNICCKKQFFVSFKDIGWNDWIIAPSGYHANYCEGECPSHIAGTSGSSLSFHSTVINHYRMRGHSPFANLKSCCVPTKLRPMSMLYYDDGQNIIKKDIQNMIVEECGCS
T3 chain 2: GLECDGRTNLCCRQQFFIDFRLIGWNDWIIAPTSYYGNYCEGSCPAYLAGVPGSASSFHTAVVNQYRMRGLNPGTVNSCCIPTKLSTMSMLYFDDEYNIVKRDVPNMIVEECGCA

T4: Activin AC (human, UniProt P55103 237-352)
T4 sequence 1: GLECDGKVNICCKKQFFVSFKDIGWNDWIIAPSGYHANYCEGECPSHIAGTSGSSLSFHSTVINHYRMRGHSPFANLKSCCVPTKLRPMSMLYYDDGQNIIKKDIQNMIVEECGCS
T4 sequence 2: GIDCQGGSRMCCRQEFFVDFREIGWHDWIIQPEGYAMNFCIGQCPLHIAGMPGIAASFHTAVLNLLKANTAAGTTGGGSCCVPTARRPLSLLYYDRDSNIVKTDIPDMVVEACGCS

T5: Activin B (homodimer of two inhibin betaB subunits) (human, UniProt P09529 293-407)
T5 construct: Bought (R&D Systems #659-AB-025/CF)
T5 chain: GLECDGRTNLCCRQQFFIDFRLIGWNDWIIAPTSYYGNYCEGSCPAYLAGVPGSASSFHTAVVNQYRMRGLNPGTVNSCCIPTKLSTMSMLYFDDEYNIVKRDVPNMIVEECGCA


Columns and labels:
[1] = molecular target: T1, Activin A; experiment: cell-based or functional assay
[2] = molecular target: T2, Activin B; experiment: cell-based or functional assay
[3] = molecular target: T3, Activin AB; experiment: cell-based or functional assay
[4] = molecular target: T4, Activin AC; experiment: cell-based or functional assay
[5] = molecular target: T1, Activin A; experiment: SPR, 5 nM Activin A + 15 nM binder over hActRIIA-hFc surface
Method: (§1) The binding signal (RU) was measured at 150 seconds after the start of the injection, and this signal was subtracted by the measured RU value for a negative control reference surface to determine the specific binding signal.

[6] = molecular target: T1, Activin A; experiment: SPR, 5 nM Activin A + 30 nM binder over hActRIIA-hFc surface
Method: as §1

[7] = molecular target: T1, Activin A; experiment: SPR, 5 nM Activin A + 60 nM binder over hActRIIA-hFc surface
Method: as §1

[8] = molecular target: T1, Activin A; experiment: SPR, 5 nM Activin A + 0.94 nM binder over hActRIIA-hFc surface
Method: as §1

[9] = molecular target: T1, Activin A; experiment: SPR, 5 nM Activin A + 1.88 nM binder over hActRIIA-hFc surface
Method: as §1

[10] = molecular target: T1, Activin A; experiment: SPR, 5 nM Activin A + 3.75 nM binder over hActRIIA-hFc surface
Method: as §1

[11] = molecular target: T1, Activin A; experiment: SPR, 5 nM Activin A + 7.50 nM binder over hActRIIA-hFc surface
Method: as §1

[12] = molecular target: T1, Activin A; experiment: SPR, 5 nM Activin A + 15 nM binder over Follistatin-288 surface
Method: as §1

[13] = molecular target: T1, Activin A; experiment: SPR, 5 nM Activin A + 30 nM binder over Follistatin-288 surface
Method: as §1

[14] = molecular target: T1, Activin A; experiment: SPR, 5 nM Activin A + 60 nM binder over Follistatin-288 surface
Method: as §1

[15] = molecular target: T1, Activin A; experiment: SPR, 5 nM Activin A + 7.5 nM binder over Follistatin-288 surface
Method: as §1

[16] = molecular target: T1, Activin A; experiment: SPR, 5 nM Activin A + 0.94 nM binder over Follistatin-288 surface
Method: as §1

[17] = molecular target: T1, Activin A; experiment: SPR, 5 nM Activin A + 1.88 nM binder over Follistatin-288 surface
Method: as §1

[18] = molecular target: T1, Activin A; experiment: SPR, 5 nM Activin A + 3.75 nM binder over Follistatin-288 surface
Method: as §1

[19] = molecular target: T1, Activin A; experiment: SPR, 5 nM Activin A + 0 nM binder (no inhibitor) over Follistatin-288 surface
Method: as §1

[20] = molecular target: T1, Activin A; experiment: SPR, 5 nM Activin A + 0.00 nM binder (no inhibitor) over hActRIIA-hFc surface
Method: as §1

[21] = molecular target: T5, Activin B (homodimer of two inhibin …); experiment: SPR (Biacore), mAb captured by anti-Fc, Activin B injected, 25 C
Method: Antibody-antigen association was monitored for 240 seconds while dissociation in buffer was monitored for 600 seconds. Kinetic association and dissociation rate constants were determined by processing and fitting the data using Scrubber software version 2.0c. Binding equilibrium dissociation constants (KD) and dissociative half-lives (t_{1/2}) were then calculated from the kinetic rate constants as: KD (M)=kd/kₐ and t_{1/2} (min)=[ln 2/(60*kd)]. (NB=no binding observed under the conditions used; NT=not tested).

Row | Binder | IC50, inhibition of 100 pM Activin A in A204/CAGAx12-Luc luciferase bioassay [1] | IC50, inhibition of 50 pM Activin B in A204/CAGAx12-Luc luciferase bioassay [2] | IC50, inhibition of 30 pM Activin AB in A204/CAGAx12-Luc luciferase bioassay [3] | IC50, inhibition of 4 nM Activin AC in A204/CAGAx12-Luc luciferase bioassay [4] | % bound RU w/ no inhibitor [5] | % bound RU w/ no inhibitor [6] | % bound RU w/ no inhibitor [7] | % bound RU w/ no inhibitor [8] | % bound RU w/ no inhibitor [9] | % bound RU w/ no inhibitor [10] | % bound RU w/ no inhibitor [11] | % bound RU w/ no inhibitor [12] | % bound RU w/ no inhibitor [13] | % bound RU w/ no inhibitor [14] | % bound RU w/ no inhibitor [15] | % bound RU w/ no inhibitor [16] | % bound RU w/ no inhibitor [17] | % bound RU w/ no inhibitor [18] | % bound RU w/ no inhibitor [19] | % bound RU w/ no inhibitor [20] | other results
1 | H4H10429P (antibody, human IgG4, V domains shown) VH: QVQLVESGGGVVQPGRSLRLSCVASGFTVSSYGIHWVRQAPGKGLEWVSVIWYDGRNKDYADSVKGRFTISRDNSKNTVYLEMKGLRAEDTALYYCARDKTGDFDSWGQGTLVTVSS VL: DIQMTQSPSSLSASVGDRVTITCRASQNINSFLSWYQQKPGKAPKFLIYDASSIQSGAPSRFSGSGSGTDFTLTISSLQPEDFATYYCQQSYSSPFTFGQGTKLEIK | 1.6e-10 M | 7.9e-08 M | 2.9e-10 M | 0.58 nM | 1% | 1% | 1% | 87% | 66% | 19% | 1% | 1% | 2% | 3% | 1% | 97% | 80% | 20% | 100% | 100% | 
2 | H4H10423P (antibody, human IgG4, V domains shown) VH: QVQLQQSGPGLLKPSQTLSLTCAISGDSVSSNSAAWSWIRQSPSRGLEWLGRTYYRANWFNDYALSVKSRITINPVTSTNHFSLQLHSVTPEDTAVYYCAREGALGYYFDSWGQGTLVTVSS VL: not shown |  |  |  |  |  |  |  |  |  |  |  |  |  |  |  |  |  |  |  |  | 50 nM Ag Bound (RU) [21]: 4.7 RU

Continued, in another order:

Row | IC50, inhibition of 100 pM Activin A in A204/CAGAx12-Luc luciferase bioassay [1] | IC50, inhibition of 50 pM Activin B in A204/CAGAx12-Luc luciferase bioassay [2] | IC50, inhibition of 30 pM Activin AB in A204/CAGAx12-Luc luciferase bioassay [3] | IC50, inhibition of 4 nM Activin AC in A204/CAGAx12-Luc luciferase bioassay [4] | % bound RU w/ no inhibitor [5] | % bound RU w/ no inhibitor [6] | % bound RU w/ no inhibitor [7] | % bound RU w/ no inhibitor [8] | % bound RU w/ no inhibitor [9] | % bound RU w/ no inhibitor [10] | % bound RU w/ no inhibitor [11] | % bound RU w/ no inhibitor [12] | % bound RU w/ no inhibitor [13] | % bound RU w/ no inhibitor [14] | % bound RU w/ no inhibitor [15] | % bound RU w/ no inhibitor [16] | % bound RU w/ no inhibitor [17] | % bound RU w/ no inhibitor [18] | % bound RU w/ no inhibitor [19] | % bound RU w/ no inhibitor [20] | Binder | other results
3 | 2.8e-10 M | 5.2e-09 M | 4.3e-10 M | 0.75 nM | 4% | 3% | 3% | 75% | 52% | 17% | 6% | 2% | 1% | 0% | 4% | 76% | 57% | 17% | 100% | 100% | H4H10440P2 (antibody, human IgG4, V domains shown) VH: EVQLVESGGGVVQPGGSLRLSCAASTFTFDDFAMHWVRQAPGKGLEWVSLITGDGGSTYYADPVKGRFTISRDNSKNSLYLQMNSLRTEDTALYYCVKDWWIAARPDYYYYGMDVWGQGTTVTVSS VL: not shown | 
4 | 2e-10 M | 1.3e-10 M | 1.4e-10 M | 1.3 nM | 2% | 2% | 2% | 75% | 55% | 16% | 2% | 1% | 2% | 2% | 1% | 78% | 61% | 16% | 100% | 100% | H4H10436P2 (antibody, human IgG4, V domains shown) VH: QVQLVESGGGVVQPGRSLRLTCVASGFTVSSYGMHWVRQAPGKGLEWVAVMFYDESKKYYADSVKGRFTISRDNSKNTLYLQMNSLRVEDTAVYYCARDEQLDFEYWGQGTLVTVSS VL: not shown | 
